This note sets out measurements from article PMC10045995.

Experiment [1] has as its target epidermal growth factor receptor (EGFR), expressed in sensor cells as fusion protein 1 (mNpu^N-EGFR) and fusion protein 2 (EGFR-Npu^C-rMTS-mCherry) (UniProt P00533).
The target is the same in experiment [2]. This is another data set of the same source.

In the case of “epidermal growth factor (EGF) (from UniProt P01133 971-1023) (ligand)”, in experiment [1], the co-localisation (Pearson's r) of mCherry with mitochondrial stain in EGF-treated sensor cells (agonist/antagonist screen; untreated control 0.1) was determined as 0.8 Pearson's r; the co-localisation (Pearson's r) of mCherry with mitochondrial stain in sensor cells co-treated with EGF and Cetuximab (400 nM) (EGF alone 0.8) stood at 0.1 Pearson's r. Moreover, in experiment [2], the co-localisation (Pearson's r) of mCherry with mitochondrial stain in sensor cells treated with EGF 0.001-100 ng/mL for 1 h (untreated control 0.08) was found to be 0.87 Pearson's r and the limit of detection (LOD) of EGF by the sensor cells (mCherry translocation to mitochondria) was 0.1 ng/mL.
“transforming growth factor-α (TGF-α) (from UniProt P01135 40-89) (ligand)” yielded a co-localisation (Pearson's r) of mCherry with mitochondrial stain in sensor cells treated with TGF-α (100 ng/mL) (untreated control 0.1) in experiment [1] of 0.8 Pearson's r.
